Data: the supplement of paper PMC6757056
± gives the standard deviation of the averaged measurements.

B1: library; a variant is named by its letters at N, in order (parent)
chain: GCUGUCACCGGUGUAUUACCCUAGUGGUCGACCGGUCUGAUGAGUCUNNNNNNAGACGAAACAGC

Key:
[1] = variants of: B1; experiment: normalized RNA/DNA level with ligand (relative to sTRSVctl = 100) (log10 (% of sTRSVctl)); ligand: hypoxanthine (xanthine aptamer); higher = less ribozyme self-cleavage, higher mRNA level; details: ligand concentration (+) RNA-Seq: 5 mM, HEK293T, reporter: mCherry (pCS4076), ligand present: yes
Summary of the method: (§1)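 Library plasmids encoding reporter-linked ribozyme switches (mCherry, or eGFP for some folinic acid experiments) were transfected into HEK293T at 4 µg per 6-well well. Ligand, when used, was added 1 h before transfection. Total RNA was extracted with EDTA 72 h later, then reverse-transcribed, amplified, barcoded and sequenced. RNA level was RNA reads over DNA reads, divided by a spiked-in non-cleaving control (or the top 25 sequences), ×100, log10; only sequences with ≥100 DNA reads were kept.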

[2] = variants of: B1; experiment: normalized RNA/DNA level without ligand (relative to sTRSVctl = 100) (log10 (% of sTRSVctl)); ligand: hypoxanthine (xanthine aptamer); higher = less ribozyme self-cleavage, higher mRNA level; details: HEK293T, reporter: mCherry (pCS4076), ligand present: no
Summary of the method: as §1

Row | Variant | normalized RNA/DNA level with ligand (log10) [1] | normalized RNA/DNA level without ligand (log10) [2]
1 | AGACUG | 1.89 ± 0.045 | 1.58 ± 0.036
2 | AGACAC | 1.92 ± 0.025 | 1.76 ± 0.033
3 | UGACAU | 1.937 ± 0.0061 | 1.81 ± 0.033
4 | GGAUGU | 1.93 ± 0.033 | 1.746 ± 0.0056
5 | CGCAUU | 1.942 ± 0.0093 | 1.82 ± 0.036
6 | CGCAUA | 1.9 ± 0.052 | 1.69 ± 0.033
7 | CGCAUG | 1.93 ± 0.059 | 1.81 ± 0.057
8 | GGCGCU | 1.973 ± 0.003 | 2.03 ± 0.022
9 | GGCGCG | 1.95 ± 0.028 | 1.81 ± 0.0088
10 | GGCGCC | 2.004 ± 0.0022 | 1.93 ± 0.024
11 | CGAGGC | 1.97 ± 0.024 | 1.89 ± 0.0058
12 | CGAGGA | 1.975 ± 0.0031 | 1.713 ± 0.011
13 | CGCAAG | 1.847 ± 0.014 | 1.78 ± 0.1
14 | CGCAAC | 1.928 ± 0.01 | 1.88 ± 0.024
15 | CGCAAU | 1.94 ± 0.015 | 1.77 ± 0.036
16 | AGCAAA | 1.92 ± 0.047 | 1.7327 ± 0.00011
17 | CGACCG | 1.905 ± 0.0089 | 1.92 ± 0.023
18 | CGACCC | 2.03 ± 0.046 | 1.98 ± 0.086
19 | CGACCU | 1.98 ± 0.032 | 1.92 ± 0.056
20 | CGACCA | 1.99 ± 0.045 | 1.85 ± 0.053

Row | Variant | normalized RNA/DNA level with ligand (log10) [1] | normalized RNA/DNA level without ligand (log10) [2]
21 | UGCGGU | 1.905 ± 0.01 | 1.742 ± 0.0036
22 | UGCGGG | 1.98 ± 0.11 | 1.754 ± 0.0048
23 | UGACCU | 2.004 ± 0.012 | 1.92 ± 0.021
24 | UGACCA | 1.93 ± 0.058 | 1.886 ± 0.0032
25 | UGACCC | 2.002 ± 0.0071 | 1.94 ± 0.024
26 | UGACCG | 1.96 ± 0.094 | 1.79 ± 0.046
27 | AGCCGU | 1.92 ± 0.03 | 1.69 ± 0.024
28 | AGCCGC | 1.9 ± 0.096 | 1.84 ± 0.0076
29 | CGCCAA | 1.94 ± 0.02 | 1.82 ± 0.064
30 | CGCCAC | 1.92 ± 0.043 | 1.84 ± 0.05
31 | CGCCAU | 1.88 ± 0.046 | 1.87 ± 0.021
32 | UGACUU | 1.913 ± 0.0093 | 1.89 ± 0.03
33 | UGACUG | 1.912 ± 0.0096 | 1.77 ± 0.043
34 | CGAGUG | 1.92 ± 0.0018 | 1.76 ± 0.04
35 | CGAGUA | 1.928 ± 0.013 | 1.72 ± 0.042
36 | CGCGUC | 1.97 ± 0.075 | 2.01 ± 0.061
37 | CGCGUU | 1.99 ± 0.054 | 1.905 ± 0.0075
38 | CGCGUG | 1.97 ± 0.068 | 1.73 ± 0.082
39 | GGCAUC | 1.97 ± 0.074 | 1.91 ± 0.057
40 | GGCAUA | 1.941 ± 0.0052 | 1.86 ± 0.032

Row | Variant | normalized RNA/DNA level with ligand (log10) [1] | normalized RNA/DNA level without ligand (log10) [2]
41 | GGCAUU | 1.958 ± 0.0075 | 1.925 ± 0.0063
42 | GGAGUA | 1.896 ± 0.009 | 1.77 ± 0.018
43 | GGAGUU | 1.97 ± 0.038 | 1.881 ± 0.0061
44 | GGAUCU | 1.95 ± 0.051 | 1.92 ± 0.023
45 | GGAUCC | 1.96 ± 0.049 | 1.95 ± 0.018
46 | GGAUCA | 1.96 ± 0.04 | 1.84 ± 0.037
47 | UGCCGC | 2.01 ± 0.032 | 1.927 ± 0.014
48 | UGCCGU | 1.9 ± 0.027 | 1.74 ± 0.026
49 | UGCCGA | 1.94 ± 0.024 | 1.678 ± 0.014
50 | GGCCAC | 1.997 ± 0.011 | 1.861 ± 0.0085
51 | GGCCAU | 1.957 ± 0.003 | 1.919 ± 0.018
52 | GGCCAA | 1.934 ± 0.015 | 1.87 ± 0.022
53 | GGCCAG | 1.89 ± 0.026 | 1.67 ± 0.033
54 | UGAGCA | 1.97 ± 0.04 | 1.805 ± 0.0096
55 | GGCGGC | 1.885 ± 0.015 | 1.525 ± 0.0082
56 | GGCGGG | 1.93 ± 0.034 | 1.83 ± 0.061
57 | GGCGGU | 1.957 ± 0.014 | 1.949 ± 0.017
58 | GGCAGG | 1.874 ± 0.0049 | 1.496 ± 0.0048
